Measured values from the supplement of paper PMC10567573.

B1: NECAB1 (parent)
chain: NLDTEELCEYFSQHLGEYENVLAA
B2: KRT18 (parent)
chain: KSQDLAKIMADIRAQYDELARKNR

Variants of: B1
Assay: protein stability index of a GFP-peptide fusion (GPS, HEK-293T) (PSI 1-6); higher = more stable
Settings: c terminus: a fixed tail appended
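Further: lentivirally expressed fusions sorted by FACS into six bins by GFP to DsRed ratio, PSI derived from sequencing read proportions per bin multiplied by bin number.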

Protein stability index of substitutions, site by site:
L7: M 4.26; E 4.77; V 4.59; N 4.63; Q 4.13; C 3.85; W 3.85; A 4.43; D 4.92; Y 3.94; I 3.01; G 4.79; H 4.63; R 4.49; P 4.29; K 4.7; T 4.42; S 4.53; F 3.55
T4: Q 3.59; V 2.12; M 2.66; R 3.05; P 3.56; W 2.63; A 2.75; S 3.32; G 3.91; H 4.26; L 2.15; E 4.15; Y 2.97; C 2.64; F 2.32; D 4.33; N 3.62; I 2.41; K 2.69
S12: P 4.53; C 2.53; G 4; V 2.28; T 2.91; L 1.92; E 3.83; K 2.09; R 2; H 2.88; Y 2.91; W 3.15; I 2.68; M 1.98; Q 2.55; D 4; A 2.59; N 3.07; F 3.17
Y10: F 3.17; T 4.59; M 4.18; P 4.47; K 4.33; N 4.58; V 4.24; L 4.08; C 4.46; Q 4.67; S 5.13; H 4.12; R 4.08; G 4.44; W 2.22; D 4.99; I 3.97; A 4.25; E 4.69
L15: N 4.48; R 3.1; K 4.02; G 4.38; W 2.65; Y 2.93; H 3.91; F 2.94; P 4.55; C 2.92; A 3.36; I 1.97; Q 4; E 4.45; T 3.28; V 2.04; D 4.63; M 3.07; S 3.47
E5: D 3.04; Y 1.69; H 2.1; F 1.47; A 1.56; L 1.89; N 2.4; R 2.13; V 2.1; M 1.63; K 1.94; I 1.99; W 1.98; G 1.99; C 1.92; T 2.4; S 1.93; Q 1.97; P 3.13
E17: A 2.12; C 2.31; F 2.33; D 2.88; G 2.81; H 1.54
E9: I 2.47; C 2.55; F 1.8; K 2.25; W 1.77; A 1.99; P 3.97; G 2.97; T 2.3; Q 2.05; V 1.93; M 1.9; Y 1.76; R 1.97; H 2.38; N 2.21; S 2.04; L 1.91; D 3.15
Q13: C 2.06; M 2.06; I 2.19; G 3.3; H 2.32; S 2.87; A 2.5; Y 2.2; L 2.08; T 3.27; E 2.83; D 4.13; K 2.36; V 2.7; W 2.1; F 2.27; N 2.89; R 3.25; P 3.71
C8: W 3.28; R 3.17; V 3.04; N 4.18; H 4.07; S 3.83; P 4.44; Q 3.52; I 2.52; T 3.62; G 4.56; K 3.9; D 4.39; M 3.41; L 2.86; Y 3.46; E 4.36; F 3.26; A 2.98
F11: M 3.48; I 3.59; L 2; T 4.82; W 3.85; V 3.9; N 5.01; E 5.25; K 5.08; D 4.87; Q 4.44; C 4.03; S 4.65; P 5.13; Y 4.33; A 4.18; G 4.55; H 4.26; R 5.19
H14: E 4.47; D 3.86; M 2.98; T 4.11; R 2.12; L 2.09; A 3.31; W 1.84; Q 3.35; I 1.87; S 3.81; F 2.02; N 2.55; Y 2.19; K 2.73; C 3.63; G 3.81; P 4.44; V 3.01
L2: N 3.72; T 3.52; S 4.11; M 3.46; W 2.21; F 3.05; R 4; P 1.8; Y 2.78; C 2.25; Q 4.12; A 2.99; G 3.85; K 3.9; H 3.52; D 4.72; E 4.97; V 1.79; I 2.23
D3: P 3.14; M 1.88; T 2.57; W 2.12; G 1.48; S 2.55; R 1.59; Q 1.94; F 2.36; L 2.01; A 2.25; H 2.11; C 2.12; Y 1.94; V 1.53; E 3.24; K 1.86; N 1.64; I 1.41
N1: I 2.66; H 3.35; D 1.87; E 3.7; A 2.94; S 3.93; G 3.68; P 3.68; W 1.71; M 3.17; R 3.54; Q 3.41; T 3.22; V 3.12; Y 1.83; K 3.33; C 2.67; L 2.53; F 1.68
E6: L 1.74; N 2.42; C 2.68; H 2; K 2.08; V 2.38; W 2.23; D 2.53; G 1.81; P 3.82; T 2.34; F 2.41; M 1.71; A 2.27; S 1.92; I 2.13; Q 1.64; R 1.8; Y 2.46
G16: W 2.29; P 2.03; Q 2.71; F 2.27; I 2.14; R 1.78; M 1.99; D 2.29; L 1.9; N 1.95; A 2.24; V 2.07; E 2.04; T 2.04; S 2.48; C 1.88; K 1.81; H 1.48; Y 1.58

Variants of: B2
Assay: as above
Settings: c terminus: a fixed tail appended

Protein stability index of substitutions, site by site:
Q15: M 2.14; W 2.46
A14: P 3.66
A10: R 2.4
L19: V 3.27; E 4.01
Q3: G 2.72; S 2.69
D4: P 2.68; R 2.68
R24: S 2.61
R13: N 3.62
I12: W 1.88; T 4.07
E18: G 2.66
S2: Y 2.04; H 2.63
M9: T 3.66
R21: V 1.91; C 2.68
D17: N 2.65
I8: S 4.34; H 3.8; D 4.13
